Holding throughout (assay): cell-based or functional assay
Assay [1] concerns the target HIV-1 Env pseudovirus T250-4 (HIV-1).
For assay [2], the target named is HIV-1 Env pseudovirus R3265.c06 (HIV-1).
Assay [3] has as its target HIV-1 Env pseudovirus X2088_c9 (HIV-1).
The target in assay [4] is HIV-1 Env pseudovirus 191955_A11 (HIV-1).
The target of assay [5] is HIV-1 Env of pseudovirus Q842.d12 (clade A) (HIV-1).
The target in assay [6] is HIV-1 Env of pseudovirus CNE30 (clade BC) (HIV-1).
In assay [7] the target is HIV-1 Env of pseudovirus P1981_C5_3 (HIV-1).
For assay [8], the target named is HIV-1 Env of pseudovirus 6952.v1.c20 (HIV-1).
Assay [9] concerns the target HIV-1 Env of pseudovirus 620345.c01 (HIV-1).
Assay [10] concerns the target HIV-1 Env of pseudovirus 1394C9G1(Rev-) (clade C (T/F)) (HIV-1).
Assay [11] deals with HIV-1 Env of pseudovirus 263-8 (HIV-1).
The target of assay [12] is HIV-1 Env of pseudovirus 89-F1_2_25 (HIV-1).
The target in assay [13] is HIV-1 Env of pseudovirus 3016.v5.c45 (HIV-1).
Assay [14] addresses HIV-1 Env of pseudovirus Ce2060_G9 (clade C (T/F)) (HIV-1).
The target in assay [15] is HIV-1 Env of pseudovirus 3415.v1.c1 (HIV-1).
In assay [16] the target is HIV-1 Env of pseudovirus Q259.d2.17 (clade A) (HIV-1).

The IC50 is the concentration that gives 50% inhibition. A low value points to higher potency. In general, IC80 refers to the point of the concentration-response curve where the effect stands at 80%. A higher IC80 goes with weaker potency. Consider N49P9 (antibody), for which the IC50 in [1] is greater than 50 µg/mL; in [2], 0.135 µg/mL; in assay [3], 0.07 µg/mL; in [4], greater than 50 µg/mL. The concentration for an effect of 80% (IC80) is greater than 50 µg/mL in [1], 0.812 µg/mL in [2], 0.252 µg/mL in assay [3] and greater than 50 µg/mL in assay [4]. The MPI in assay [1] amounted to 25; in assay [2], 100; in assay [3], 100; in assay [4], 35.
For the substance N49P9.1 (antibody), the IC50 in [1] was greater than 50 µg/mL; in [2], 0.469 µg/mL; in assay [3] it was 0.091 µg/mL; in [4], greater than 50 µg/mL. Further, the IC80 was greater than 50 µg/mL in [1], 1.62 µg/mL in assay [2], 0.392 µg/mL in assay [3] and greater than 50 µg/mL in assay [4]. The MPI in assay [1] amounted to 7; in assay [2] it was 100; in assay [3], 100; in assay [4], 26.
Turning to N49P11 (antibody), the IC50 in [5] amounted to 0.027 µg/mL; in assay [6] it was 0.889 µg/mL; in assay [7] it was 5.29 µg/mL; in [8] it was 6.57 µg/mL; in [9], 11.7 µg/mL; in assay [10], 6.13 µg/mL. Also, the half-maximal inhibitory concentration (IC50) in assay [11] was 0.064 µg/mL; in [12], 4.24 µg/mL; in assay [13], 8.75 µg/mL; in assay [14], 3.33 µg/mL; in assay [15], 1.86 µg/mL; in [16], 8.42 µg/mL. Besides, the IC80 stood at 0.103 µg/mL in assay [5]; 4.45 µg/mL in assay [6]; 16.5 µg/mL in [7]; 22.7 µg/mL in [8]; 27.9 µg/mL in [9]; 22.3 µg/mL in assay [10]. Further, the IC80 in [11] was 0.259 µg/mL; in assay [12], 16.6 µg/mL; in assay [13] it was 21.4 µg/mL; in assay [14], 13.2 µg/mL; in assay [15] it was 10.3 µg/mL; in assay [16] it was 21.4 µg/mL. The MPI in [5], in assay [6], in [7], in assay [8], in assay [9] and in assay [10] was 100 each time. For the same substance, the MPI in [11], in assay [12], in assay [13], in assay [14], in [15] and in assay [16] was 100 in each case.
For the substance N49P18.1 (antibody), the IC50 in [5] is 3.04 µg/mL; in [6], 13.1 µg/mL; in assay [7], 19.3 µg/mL; in assay [8], greater than 50 µg/mL; in assay [9] it was greater than 50 µg/mL; in assay [10], greater than 50 µg/mL. The concentration for half-maximal inhibition (IC50) was 3.96 µg/mL in [11]; greater than 50 µg/mL in assay [12]; greater than 50 µg/mL in assay [13]; greater than 50 µg/mL in [14]; greater than 50 µg/mL in assay [15]; greater than 50 µg/mL in assay [16]. Also, the IC80 was 8.13 µg/mL in assay [5]; 32.2 µg/mL in assay [6]; 45.4 µg/mL in assay [7]; greater than 50 µg/mL in [8]; greater than 50 µg/mL in assay [9]; greater than 50 µg/mL in [10]. Moreover, the concentration for an effect of 80% (IC80) in assay [11] was 41 µg/mL; in [12], greater than 50 µg/mL; in assay [13], greater than 50 µg/mL; in assay [14], greater than 50 µg/mL; in assay [15] it was greater than 50 µg/mL; in assay [16], greater than 50 µg/mL. The MPI was 100 in assay [5]; 93 in [6]; 83 in [7]; 30 in [8]; 0 in assay [9]; 17 in [10]. Moreover, the MPI in assay [11] was 90; in assay [12] it was 9; in [13], 49; in assay [14] it was 37; in assay [15], 48; in [16], 37.
For N49P19 (antibody), the IC50 was greater than 50 µg/mL in assay [1], 0.634 µg/mL in [2], 1.4 µg/mL in assay [3] and greater than 50 µg/mL in assay [4]. The IC80 in [1] is greater than 50 µg/mL; in assay [2], 2.73 µg/mL; in [3], 3.76 µg/mL; in assay [4], greater than 50 µg/mL. The MPI in [1] came out at 7; in [2] it was 100; in assay [3], 99; in assay [4] it was 16.
